Experimental data from paper PMC9242859.

Molecular target: C-terminally TAMRA-conjugated and N-terminally myristoylated preS1 peptide, amino acids 2-48 of the preS1 region (preS1 probe)
Assay: preS1 binding assay (fluorescent preS1 probe attachment to cells, fluorescence imaging)
Details: Huh7 cells transiently expressing wild-type or mutant NTCP; parent: est. 1.0; read off a plot

Row | Substance | ratio to parent (fold vs control)
1 | wild-type NTCP transiently expressed in Huh7 cells (from UniProt Q14973) R143A; D147A | 1.1
2 | wild-type NTCP transiently expressed in Huh7 cells (from UniProt Q14973) R84A; N87A | 0.46
